From article PMC11464680, “ABIOTIC STRESS GENE 1 mediates aroma volatiles accumulation by activating MdLOX1a in apple”

T1: MdASG1-GST (Malus domestica (apple; library from …, UniProt A0A498KLW2 21-457)
T1 sequence: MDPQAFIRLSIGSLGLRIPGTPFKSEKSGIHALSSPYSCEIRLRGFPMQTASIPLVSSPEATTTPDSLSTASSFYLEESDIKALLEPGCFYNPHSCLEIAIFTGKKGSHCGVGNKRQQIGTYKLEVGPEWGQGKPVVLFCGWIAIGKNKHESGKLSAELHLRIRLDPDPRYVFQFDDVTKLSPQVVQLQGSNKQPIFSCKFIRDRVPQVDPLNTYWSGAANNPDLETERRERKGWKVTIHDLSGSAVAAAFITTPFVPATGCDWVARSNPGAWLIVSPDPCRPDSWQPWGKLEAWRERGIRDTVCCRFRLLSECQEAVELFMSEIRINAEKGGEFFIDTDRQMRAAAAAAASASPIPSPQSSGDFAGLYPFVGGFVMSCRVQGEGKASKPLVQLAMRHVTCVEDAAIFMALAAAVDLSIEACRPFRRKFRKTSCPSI

B1: p4MdLOX1a-2 (dsDNA)
DNA 1: AATTACGCAGGGATTACATCTATGTCATCTTAAAGCCAGCTAACTTTCGGGATAAACGATTTTGTAC
DNA 2: GTACAAAATCGTTTATCCCGAAAGTTAGCTGGCTTTAAGATGACATAGATGTAATCCCTGCGTAATT
B2: Mutant-M1 (dsDNA)
DNA 1: GATTACATCTATGTCATCTTAAAGCCAGCTAACTTTCGGGATAAATTACCTTATAC
DNA 2: GTATAAGGTAATTTATCCCGAAAGTTAGCTGGCTTTAAGATGACATAGATGTAATC
B3: p4MdLOX1a-2-M6 (dsDNA)
DNA 1: AATTACGCAGGGATTACATCTATGTCATCTTAAAGCCAGCTAACTTTCGGGATAA
DNA 2: TTATCCCGAAAGTTAGCTGGCTTTAAGATGACATAGATGTAATCCCTGCGTAATT

Each binder was assayed against T1, MdASG1-GST (assay: EMSA; LightShift Chemiluminescent EMSA kit binding buffer (composition, salt and pH not stated), 24 °C, 15 min). Details: protein: recombinant; tags: GST (pGEX-4T, N-terminal); label: biotin; blunt.

Question: Does B1 bind?
Answer: binds

Question: Does B2 bind?
Answer: no binding

Question: Does B3 bind?
Answer: no binding
